Target: TrkB receptor expressed in mouse oocytes (mouse) (UniProt P15209)
Assay: cell-based or functional assay

- proportion of MII oocytes that developed into blastocyst-stage embryos: 5 fold
- proportion of MII oocytes that developed into two-cell stage embryos: 2 fold
- proportion of oocytes showing first polar body extrusion (MII-stage oocytes), 3 ng/ml BDNF with 5% FBS: > 2 fold
Substance: recombinant human BDNF (Pepro-Tech, Rocky Hill, N.J.) (from UniProt P23560 19-247) (ligand)
